Measured values published in US20150218281A1 (Ablynx, published 2015).

T1: recombinant human OX40L (extracellular domain, R&D Systems) (human, UniProt P23510 51-183)
T1 construct: also called hOX40L; rec. hOX40L
T1 sequence: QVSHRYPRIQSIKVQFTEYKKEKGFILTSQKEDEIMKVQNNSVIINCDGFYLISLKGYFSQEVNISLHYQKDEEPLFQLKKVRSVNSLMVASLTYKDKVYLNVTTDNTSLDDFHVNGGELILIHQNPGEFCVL

T2: biotinylated hOX40L (R&D Systems, biotinylated in house) (human, UniProt P23510 51-183, biotinylated with Sulfo-NHS-LC-Biotin, sites not stated)
T2 construct: same bought protein as m10, biotinylated; also called biotinylated OX40L
T2 sequence: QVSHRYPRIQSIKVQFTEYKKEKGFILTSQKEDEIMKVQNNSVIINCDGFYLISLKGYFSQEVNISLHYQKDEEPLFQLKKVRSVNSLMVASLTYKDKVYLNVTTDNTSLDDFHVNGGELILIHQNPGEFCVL

T3: full length human OX40L expressed on CHO cells (human, UniProt P23510 1-183)
T3 construct: CHO K1 stably transfected as described for CAKI cells; also called CHO-hOX40L; hOX40L expressing CHO cells
T3 sequence: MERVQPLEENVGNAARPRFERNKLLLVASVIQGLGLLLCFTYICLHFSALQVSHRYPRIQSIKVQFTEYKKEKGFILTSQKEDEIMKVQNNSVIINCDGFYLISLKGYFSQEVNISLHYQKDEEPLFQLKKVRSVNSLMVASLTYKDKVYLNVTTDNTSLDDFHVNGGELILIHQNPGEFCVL

T4: human Receptor Activator for Nuclear Factor kappa B Ligand (human, UniProt O14788 143-317, limits assumed)
T4 construct: also called hRANKL; RANKL
T4 sequence (looked up): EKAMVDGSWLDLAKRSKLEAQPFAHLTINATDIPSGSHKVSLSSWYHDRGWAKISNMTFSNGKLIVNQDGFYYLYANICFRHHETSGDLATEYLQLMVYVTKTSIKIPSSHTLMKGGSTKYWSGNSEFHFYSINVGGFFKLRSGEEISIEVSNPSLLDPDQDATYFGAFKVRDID

T5: hCD30L (human, UniProt P32971 63-234)
T5 sequence (looked up): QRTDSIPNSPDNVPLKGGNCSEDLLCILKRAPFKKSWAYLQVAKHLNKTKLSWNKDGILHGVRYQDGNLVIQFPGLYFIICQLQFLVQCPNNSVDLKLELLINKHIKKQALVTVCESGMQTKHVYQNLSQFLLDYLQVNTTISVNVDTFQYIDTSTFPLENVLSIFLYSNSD

T6: hCD40L (human, UniProt P29965 113-261)
T6 sequence (looked up): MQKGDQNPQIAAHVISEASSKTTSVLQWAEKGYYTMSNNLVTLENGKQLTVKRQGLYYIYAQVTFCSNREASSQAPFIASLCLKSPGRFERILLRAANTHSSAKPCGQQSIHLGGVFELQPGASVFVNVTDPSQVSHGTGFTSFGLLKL

T7: cynomolgus OX40L expressed on CHO cells (cynomolgus monkey, UniProt P23510 1-183 (human entry))
T7 construct: also called cynoOX40L; CHO-cynoOX40L
T7 chain: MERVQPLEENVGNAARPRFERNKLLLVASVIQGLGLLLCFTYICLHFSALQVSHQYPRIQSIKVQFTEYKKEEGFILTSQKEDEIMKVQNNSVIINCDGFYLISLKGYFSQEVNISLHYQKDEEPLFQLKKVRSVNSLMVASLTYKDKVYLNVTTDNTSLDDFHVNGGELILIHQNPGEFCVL


Tests used:
[1] = molecular target: T1, recombinant human OX40L (extracellular …); assay: SPR, second injection after competitor OX40L01E07
Protocol: (§1) In addition, it was investigated to what extend the 7 anti-OX40L Nanobodies have a different or identical or overlapping epitope. Standard conditions were as described above. […] 1300 RU. A dual injection was performed at 10 μl/min for 2 min, starting with 500 nM of the first Nanobody, followed by 500 nM of the second Nanobody. After 10 min dissociation, regeneration of the surface was performed by injection of 50 mM NaOH for 5-20 sec at 100 μl/min.

[2] = molecular target: T1, recombinant human OX40L (extracellular …); assay: SPR, second injection after competitor OX40L15B07
Protocol: as §1

[3] = molecular target: T2, biotinylated hOX40L (R&D Systems, …); assay: AlphaScreen, 31 pM biotinylated hOX40L + 80 pM OX40/Fc
Protocol: (§2) Next, streptavidin donor beads were added and incubated for an additional 1 hour. Fluorescence was measured by reading plates on the EnVision Multilabel Plate Reader using an excitation wavelength of 680 nm and an emission wavelength of 520 nm.

[4] = molecular target: T1, recombinant human OX40L (extracellular …); assay: SPR, second injection after competitor OX40L19A07
Protocol: as §1

[5] = molecular target: T3, full length human OX40L expressed on …; assay: competition FACS, 3.1 nM hOX40/Fc on hOX40L expressing cells
[6] = molecular target: T1, recombinant human OX40L (extracellular …); assay: SPR, second injection after competitor OX40L01B11
Protocol: as §1

hTNF-alpha = hTNF-alpha (human, UniProt P01375 77-233); assay: competition ELISA on neutravidin captured biotinylated hOX40L
Protocol: (§3) The binding of OX40L blocking Nanobodies to other TNF family members was tested in a competition ELISA.
(§4) Detection was done using sTMB (SDT Reagents, Baesweiler, Germany), the reaction was stopped with 1M HCl and absorbance was determined at 450 nm.

[7] = molecular target: T4, human Receptor Activator for Nuclear …; assay: as above
Protocol: as §3, §4

[8] = molecular target: T8, human tumor necrosis factor-related apoptosis inducing ligand (human, UniProt P50591 114-281); assay: as above
T8 construct: also called hTRAIL; TRAIL
Protocol: as §3, §4

hCD30L = molecular target: T5, hCD30L; assay: as above
Protocol: as §3, §4

hCD40L = molecular target: T6, hCD40L; assay: as above
Protocol: as §3, §4

[9] = molecular target: T2, biotinylated hOX40L (R&D Systems, …); assay: AlphaScreen, 120 pM biotinylated hOX40L + 0.2 nM hOX40/Fc
Protocol: as §2

[10] = molecular target: T1, recombinant human OX40L (extracellular …); assay: SPR, second injection after competitor OX40L01E10
Protocol: as §1

[11] = molecular target: T3, full length human OX40L expressed on …; assay: cell-based or functional assay
[12] = molecular target: T3, full length human OX40L expressed on …; assay: competition FACS with hOX40/Fc on CHO-hOX40L
Protocol: The competition FACS assay was performed as described in example 2.

[13] = molecular target: T1, recombinant human OX40L (extracellular …); assay: SPR, second injection after competitor OX40L18E09
Protocol: as §1

[14] = molecular target: T1, recombinant human OX40L (extracellular …); assay: SPR, second injection after competitor OX40L19D08
Protocol: as §1

[15] = molecular target: T1, recombinant human OX40L (extracellular …); assay: SPR, after second injection of buffer HBS-EP+
Protocol: as §1

[16] = molecular target: T7, cynomolgus OX40L expressed on CHO cells; assay: FACS binding to CHO cells, anti-c-myc detection
Protocol: (§5) Transfection of CHO K1 with the respective expression plasmid DNA and selection of clones with high expression levels was performed as described in Example 1. Binding of the Nanobodies to the cell surface expressed OX40L was assessed by FACS analysis of cells as described below.
(§6) After washing bound Nanobodies were detected in FACSArray™ using mouse anti-c-myc and PE conjugated goat anti-mouse IgG.

[17] = molecular target: T3, full length human OX40L expressed on …; assay: FACS binding to CHO cells, anti-c-myc detection
Protocol: as §5, §6

T8 sequence (P50591 114-281 limits assumed): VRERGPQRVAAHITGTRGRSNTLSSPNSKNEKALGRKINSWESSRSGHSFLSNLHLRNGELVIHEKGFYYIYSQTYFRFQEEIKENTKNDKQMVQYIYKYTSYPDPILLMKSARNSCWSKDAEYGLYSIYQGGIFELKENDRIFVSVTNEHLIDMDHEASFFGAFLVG
Sequence of hTNF-alpha (P01375 77-233 limits assumed): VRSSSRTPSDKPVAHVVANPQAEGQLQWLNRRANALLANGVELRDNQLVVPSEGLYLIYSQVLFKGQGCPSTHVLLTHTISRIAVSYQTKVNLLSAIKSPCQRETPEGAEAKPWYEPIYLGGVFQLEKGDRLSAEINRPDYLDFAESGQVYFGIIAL

Row | Binding Level sample 2 (RU) [1] [RU] | Binding Level sample 2 - sample 1 (RU) [1] [RU] | Binding Level sample 2 (RU) [2] [RU] | Binding Level sample 2 - sample 1 (RU) [2] [RU] | IC50 [3] [nM] | Binding Level sample 2 (RU) [4] [RU] | Binding Level sample 2 - sample 1 (RU) [4] [RU] | IC50 [5] [nM] | Binding Level sample 2 (RU) [6] [RU] | Binding Level sample 2 - sample 1 (RU) [6] [RU] | IC50 [9] [nM] | Binding Level sample 2 (RU) [10] [RU] | Binding Level sample 2 - sample 1 (RU) [10] [RU] | IC50, IL4 production, T-cell activation assay, donor 1 [11] [nM] | IC50, IL4 production, T-cell activation assay, donor 2 [11] [nM] | Binder | binding result (hTNF-alpha) | binding result [7] | binding result [8] | binding result (hCD30L) | binding result (hCD40L) | further results
1 | 193 | 5 | 190 | 5 | 0.264 | 183 | 17 | 9.11 | 342 | -7 | 0.49 | 215 | 8 | 110 | 159 | OX40L01E10 (VHH, monovalent Nanobody from E. coli; not shown: C-terminal c-myc and His6 tag) VHH: EVQLVESGGGLVQAGDSLRLSCAASGLTFSSFAMGWFRQAPGKEREFVAAISRSGYGTSEADSVRDRFIISRDNAKNTVTLHLSRLKPEDTAVYYCAAEHTLGRPSRSQINYLYWGQGTQVTVSS | no binding (tested: starting from 100 fold molar excess) | no binding (tested: starting from 100 fold molar excess) | no binding (tested: starting from 100 fold molar excess) | no binding (tested: starting from 100 fold molar excess) | no binding (tested: starting from 100 fold molar excess) | IC50, IL4 production, T-cell activation assay, donor 3 [11]: 27 nM; IC50, IL4 production, T-cell activation assay, donor 4 [11]: 12 nM; IC50 [12]: 12 nM; Binding Level sample 2 (RU) [13]: 176 RU; Binding Level sample 2 - sample 1 (RU) [13]: -2 RU; Binding Level sample 2 (RU) [14]: 202 RU; Binding Level sample 2 - sample 1 (RU) [14]: -13 RU; Binding Level sample 2 (RU) [15]: 185 RU; Binding Level sample 2 - sample 1 (RU) [15]: -26 RU; EC50 [16]: 5.54 nM; EC50 [17]: 3.77 nM
2 | 200 | 15 | 207 | 11 | 0.041 | 206 | 30 | 1.73 | 312 | -7 | 0.112 | 245 | 21 | 36 | 45 | OX40L18E09 (VHH, monovalent Nanobody from E. coli; not shown: C-terminal c-myc and His6 tag) VHH: EVQLVESGGGLVQAGGSLRLSCAASRNILSLNTMGWYRHAPGKPRELVARISSNSKTDYADSVKGRFTISRDNAKNTVLLQMNSLKPEDTGVYYCNLNVWRTSSDYWGQGTQVTVSS | no binding (tested: starting from 100 fold molar excess) | no binding (tested: starting from 100 fold molar excess) | no binding (tested: starting from 100 fold molar excess) | no binding (tested: starting from 100 fold molar excess) | no binding (tested: starting from 100 fold molar excess) | IC50, IL4 production, T-cell activation assay, donor 3 [11]: 36 nM; IC50, IL4 production, T-cell activation assay, donor 4 [11]: 49 nM; IC50 [12]: 2 nM; Binding Level sample 2 (RU) [13]: 195 RU; Binding Level sample 2 - sample 1 (RU) [13]: 5 RU; Binding Level sample 2 (RU) [14]: 225 RU; Binding Level sample 2 - sample 1 (RU) [14]: -3 RU; Binding Level sample 2 (RU) [15]: 168 RU; Binding Level sample 2 - sample 1 (RU) [15]: -16 RU; EC50 [16]: 3.8 nM; EC50 [17]: 2.26 nM
3 | 179 | -3 | 207 | 9 | 0.355 | 183 | 6 | 16.6 | 371 | 70 | 0.54 | 239 | 12 | 596 | 618 | OX40L19A07 (VHH, monovalent Nanobody from E. coli; not shown: C-terminal c-myc and His6 tag) VHH: EVQLVESGGGLVQAGGSLRLSCAASGFTLDDYAIAWFRQAPGKEREGVSRIKISNGRTTYAGSVKGRFTISSDNAKNTVYLQMNSLNAEDTAVYYCAADRSSLLFGSNWDRKARYDYWGQGTQVTVSS | no binding (tested: starting from 100 fold molar excess) | no binding (tested: starting from 100 fold molar excess) | no binding (tested: starting from 100 fold molar excess) | no binding (tested: starting from 100 fold molar excess) | no binding (tested: starting from 100 fold molar excess) | IC50 [12]: 13 nM; Binding Level sample 2 (RU) [13]: 194 RU; Binding Level sample 2 - sample 1 (RU) [13]: 2 RU; Binding Level sample 2 (RU) [14]: 205 RU; Binding Level sample 2 - sample 1 (RU) [14]: -24 RU; Binding Level sample 2 (RU) [15]: 160 RU; Binding Level sample 2 - sample 1 (RU) [15]: -15 RU; EC50 [16]: 5.34 nM; EC50 [17]: 5.67 nM
